The nature of the data set: soluble on expression in E. coli; label from the status in PepcDB or PDB records.
In the case of “MDKPQEECGILGLWSEGPVDVAGLLHLGLLALQHRGQEAAGMAVTDGKAFLVEKDLGLVNQVFTEERLGKLRLPEARLGIAHTRYSTTGSNLRINAQPLTARTAHGVLAIAHNGNFTNAKLLRDRLLLEGATFQSTSDTEVMLLLLARMGHLPLPEAAAQAMRLLQGGYSILLMNRKTLLALRDPHGVRPLVLGKAPWGYAFASEPPALLLMGAEYVRDVRPGEVVWVEEGRLQSLQALPPEPAPCAFEWIYFARPDSVLDGTEAYEARVRMGMELFREAPAEADLVVPVPDSGIGAAVGYAKASGLPLEFGLYKNPYAGRTFIQPTQELRDLKTRLKLSPTGAVKGKRVVLVDDSIVRGTTSRRIVRMLKEAGALEVHFRVSSPPIRFPCYYGIDTAARKELIAAEKSVEEIQAYIGADSLAFLSEEGVKRAIGRPVCLACFNGRYPAGVPEEGEKLALELL”, the “soluble on expression in E. coli” value is recorded as “soluble”. Regarding “MGSSHHHHHHSSGLVPRGSHMDTKIGLEVHFQLNTGKLFCRCPVEQSSGELMRFSRKLHISASELGNIDAAASYESMRSRSFQYVVTDNSCLVEMDEEPPKTPDERAIATAISVSKALNCDIVDHITYMRKIVIDGSNTTGFQRTAIVGINGHIETSKGPVRISTVCLEEDAARKIEEIGNTVVYSLDRLGIPLIEISTEPDIVDEDHAVEVARSIGYIVISTGNARHAVDAVRQDVNFSMGYGRVEIKGVSKLTQIRDVIRYEKERQENLRAAVDLIKSRGGLDRVSFNLKDVSDLFAGTKSKIIRSGIESGGVYAGILKNMAGTLKNGKLRMGKEIADLVRSYGIKGVMHSDELPGYGLTQDEVEALYRYLGKGDNDAVLLIAINQSRVKMIENSIFDRIQKIISMDLSETRGPAGEETVFLRPMPGKDRMYPETDIPVIKVDSKLMEMSSSIKPRTYAEVVQDLVDRYGISKQNAEYIASEMVVDAFRNIAEFVEAREAARILTQIVPDLERRTKKIIDHDRIIELCRRSKDLHFDRYQLEMALEILYERDDVASVLGDSRLKELSREEIKSIIREILSSGRNATQNSIIALIKEKTERVFDPRVAMECFNEVKNKNNVF”, the “soluble on expression in E. coli” value is “soluble”. For “AIAHGVEFAPLERQHGSQVLALLRGTLLVPLPRLHQRLEEAYERDARLGLAQVALCRLAGNAEKVVGVLLARVATRRTCCAQVYIDAVAVDAVFQGQGIGSRLLLRVLTPCLPDGLEVREVFLHTPLQATELVAFYRSCGFESDDEVIDNYYPRRWMPQAQALVLRWRPPTAAQHQHEERKGPQDADVS”, the “soluble on expression in E. coli” value is listed as “soluble”. On to “MSLKNTTHFIVFDIERNFRPYKSDDPSEIVDIGAVKIEASTMKVIGEFSELVKPGARLTRHTTKLTGITKKDLMNVEKFPQIIERFIQFIGEDSIFVTWGKEDYRFLVHDCTLHGVDCPCMEKERRIDLQKFVFQAYEELFEHTPSLQSAVEQLGLTWEGKQHRALADAENTANILLKAYSERDITKRYKRHGELELVENGKLTEKAKKKMRKWVFKEMRKNTERPFAWSTFESSDTWESITERYYISEPTIELLKKHFRTAVRKAERRIRYLAEMEKNAEVKEGHHHHHH”, for which the “soluble on expression in E. coli” value is recorded as “soluble”. On to “MSLSKASLQEMAVKYIAEQIGEHDSEQIHLSALPLDSRIPDRACSTTPDIISSSEPPFNRQITIQVKCDDPQSWAQYVHIKVLKMAPVVVTTDNIARGEVITSAHITVEMKPTHFVRVQYQDDPKALIGSRSKRNIREGMPILLNQICMVCKGDAINIYASTKGLQIKTTGVALEDGTLGEQILVENKKTGKVLNARVDGVESVQVNIEGHHHHHH”, for which the “soluble on expression in E. coli” value was “not soluble”.

Regarding “SNAMKYTVYLFDFDYTLADSSRGIVTCFRSVLERHGYTGITDDMIKRTIGKTLEESFSILTGITDADQLESFRQEYSKEADIYMNANTILFPDTLPTLTHLKKQGIRIGIISTKYRFRILSFLRNHMPDDWFDIIIGGEDVTHHKPDPEGLLLAIDRLKACPEEVLYIGDSTVDAGTAAAAGVSFTGVTSGMTTAQEFQAYPYDRIISTLGQLISVPEDKSGCPL”, the “soluble on expression in E. coli” value is on record as “soluble”. Consider “MVKLIHTLADHGDDVNCCAFSFSLLATCSLDKTIRLYSLRDFTELPHSPLKFHTYAVHCCCFSPSGHILASCSTDGTTVLWNTENGQMLAVMEQPSGSPVRVCQFSPDSTCLASGAADGTVVLWNAQSYKLYRCGSVKDGSLAACAFSPNGSFFVTGSSCGDLTVWDDKMRCLHSEKAHDLGITCCDFSSQPVSDGEQGLQFFRLASCGQDCQVKIWIVSFTDILARRTEHQLKQFTEDWSEEDVSTWLCAQDLKDLVGIFKMNNIDGKELLNLTKESLADDLKIESLGLRSKVLRKIEELRTKVKSLSSGIPDEFICPITRELMKDPVIASDGYSYEKEAMENWISKKKRTSPMTNLVLPSAVLTPNRTLKMAINRWLETHQK”, for which the “soluble on expression in E. coli” value was “soluble”. With “MSAMKKLVVLGGGYGGMRILQRLLPNDLPSDWEITLVDRLPYHCLKTEYYALAAGTASDHHLRVSFPEDPRLSTRYGSVSSIDLASKTVLFEEGEPLTYDTLIIGLGCEDKYHGVPGAKEHTYSIQSMEATRRTYEALNNVRPEGVVTIVGAGLSGVELASELRESRPDLTIKLLDRGDIILSMFPRRLSNYVQNWFIDHGVDIINKSNVTKVEEGAVYNHDERIESDAIIWTAGLEHHHHHH”, the “soluble on expression in E. coli” value is reported as “soluble”.

On to “MAHHHHHHMSANGKISVPEAVVNWLFKVIQPIYNDGRTTFHDSLALLDNFHSLRPRTRVFTHSDGTPQLLLSIYGTISTGEDGSSPHSIPVIMWVPSMYPVKPPFISINLENFDMNTISSSLPIQEYIDSNGWIALPILHCWDPAAMNLIMVVQELMSLLHEPPQDQAP”, for which the “soluble on expression in E. coli” value was “soluble”. In the case of “MVHYKLSYFPIRGAGEVIRQIFVYAGQSFEDHRISIEEWAAVKPTTPFGQLPLLEVDGKVLPQSHSIARFLARQFGINGKCAWEEAQVNSIADQFKDYRNEVRPYVMVKMGFAEGDLDALSKDVFLPGFKKHYGFIYNFLKTAGSGYLVGDSLTFVDLLIAQHTADILSTDPALLEEFPQFKAHQEKVHSNANIKKWLETRPETQF”, the “soluble on expression in E. coli” value is reported as “not soluble”. With “GHMSYSITLRVYQTNRDRGYFSIVEKTVWHFANGGTWSEANGAHTLTMGGSGTSGMLRFMSTKGERITVAVGVHNYKRWCDVVTGLKPDETALVINPQYYNNGGRDYVREKQLAEYSVTSAIGTKVEVVYTVAEGNNLEANVIFS” the entry was “soluble”. With “MANDPYIQSFTCFDGTRRLLTAALPEVALALKQAVAGGAAGPLLVFDNATGRSVDLDIRGSSEDLLARLVVAGERQPAEEAAPRGRGRPKLGVVAREVTLLPRHWEWLAAQPGGASVALRKLVEEARRSQSGRARQAQERAYHFMNAMAGDLPGFEEATRALFAGDREGFAERIAGWPTDVREHAAWLASDGES” the entry was “not soluble”; with “MGSDKIHHHHHHMVSRYLEHLEHTFSTRLFQRNTRKISLTPAGEKALLYCENILQQQQLLQELAAPEQHNGTIRFTCGLFLFELGVAECIRQFKRQHPHIQFDVYLTESTMDLIDAQVDLALRITQKVADGLIARPVCQIESVFCAHPDYLKQHSPLLHPRQLIQHECIAHHSQHQFWTLFDNEQQPQNYPLNVTFKSNDVNALYDMCLHAQGVAMLPTLLVEKDLKEKRLKALFKNFTAPELSLSVVYASRQHLPRITQEFIAFMIENLDFYLKPQN”, “not soluble”.

In the case of “MFFNLRKNKKRLGWFNNGEVEAVAKDLGVAPSEVREMEARLAAQDSTFEAPAEDDDRDMAFTAPVYYLEDKQSDVAYSLEEDNWEDYTNNRLANAIATLDERSQHIVQSRWLADEKATLQELADTYQVSAERIRQLEKNAMKKLKDAVGDVL”, the “soluble on expression in E. coli” value is listed as “not soluble”.

Regarding “MGSDKIHHHHHHMSHNKFDIIPAASFSNIGLEMIPPFPGLSSWVQCLWVNNDLKNSSRHVEEKLYPDAGSSLTFEIRNTRINARYFHHTRVVTHRWDTSTRHISVRFRPGGAKALLGLDIDDSQNIEIDLFDTPVSQQLSLQPLMDMLPALSADQQVQAVQNWLLTLSYRAQEPSRKWSTLLAHASADLIPPQQLALQNGFSRRTLERQLRKYLGFTPNQLHGFAQIRAARQYLILTPDSLSDIALACGYFDQAHFTNAFREQTLETPLQYRQRKMSQISNR”, the “soluble on expression in E. coli” value is “not soluble”. Regarding “AVREEIAGALYLGHSEGVVEKEDRDRILGALDLAERTVEEIMLHRSNIVMLDADAEPETILEHCLQSPHTRLPVYRGEPENIIGVVHAKDLFRAMYAQVGGSEGHTARLKDFDISRVANAPYFVPETTTLDDQMRAFLRMRSHFALVVDEYGSLRGLITLEDILEEIVGEIT”, the “soluble on expression in E. coli” value is reported as “not soluble”. The same measure for “MSLAANPWNWFGSSTKVSEQGVGELTASTPLQEQAIADALDGDYRLRSGMKTANGNVVRFFEVMKGDNVAMVINGDQGTISRIDVLDSDIPADTGVKIGTPFSDLYSKAFGNCQKADGDDNRAVECKAEGSQHISYQFSGEWRGPEGLMPSDDTLKNWKVSKIIWRREGHHHHHH”: “soluble”; for “MSLRILVIEDEISLNKTIIDNLNEFGYQTDSSENFKDGEYFIGIRHYDLVLANWTLPDGDGAELVNTIKHKSPRTSVMIMSSKTDKETEIKALKAGADDFVKKPLDFDILLARIEARLRLGGTNVIKIEDLVIDPDEEKITYKGQDIELKGKPFEVLTHLARHSDQIVSKEQLLDAIWEEPELVTPNVIEVAINQIRQKMDKPLNISTIETVRRRGYRFCFPKKSEGHHHHHH”: “soluble”. The same measure for “MSLKELYLIDALNIIFRNYHVMKNYPLLNTQGENVNAFIGFFKTLFFIIKEKNPEHLIITFDSEVPTFRKQKYPSYKATRDLPPDDLIPQIGWIKEGLLKAKIPIFEMEGYEADDLLASFAKKAAKNNYLTYIISPDKDLLQTMSEYVKILKIENNSFIEMDNEYVTKKFGVNSFQIKDYLAIVGDRSDNIPGIKGIGAKGAANLLREFKTLDGIYSNLEIINKKHRELLIKEKENAFLSYELVSLEENLKIPEIENFALKNFSEEIISLFEKHSAIALIKTYKKDILKQEKENADQKSLFKQEPTTNSLDDINTIDTENVKYRSITTKIELDDLIESLKKAKYISIDTETSSLDTYTAKLIGISISFKEFEGYYIPIEAKGKIYIEKNYIIQKFNNLFESNPKIIGQNYKFDYKILKNNGFNPIPPYFDTMIAAYLIDTNSKVSLDFLAEKYLMHKNIKYEDVIQKNDNFANISLEMATSYSSEDADITFRLFNIFTKKLKEDKLDKLMHEIEMPFNKVIIEMEEGHHHHHH”: “not soluble”; for “MSEDKDMKNRNAMTIKRFVDVEEDGEHGGSGEFAELFQESIKQHRVGEVVTGKVVHISNEFVLVDIGYKSEGCIAIDEFLDEDGNLTVKVGDEVKALFERKENQKGYAVLSRRKAERLAVWDVIDEAGGEGGIIEGKITGKVKGGLTVDIGVQAFLPASQVDLRPGGNLDKYIGTTDRFKVLKLNKKRGNIVLSRRVLMEEERESSRKETLATLAEGQVREGVVKNITDYGAFVDIGGVDGLLHVTDMSWGRLGHPSEILKPGDKLNVKVLKYDQEKGKISLGLKQVTPDPWVSVEQKYNQGDRVKGKVVSLTDYGAFIALEDGVEGLVHVSEMSWTRRLRHPSEILTVGDEVETVVLGVDMGNRRISLGLKQVQVNPWTQLEEKYPVGTKLEGQIKSITDFGVFIGIEEGIDGLVHVSDISWTKRIKHPGEVFTKGQTVQAVVLNIDPENERLSLGIKQLLLDPWSEIPVKYRPGTRVHGKVTSVTDFGVFLEIEEGIEGLIHVSELSREKVASPKEFTNVGDELDAVVLSVDESEKKIALSIKSLQMAAEKAEIESYMQAQGEATSNLGELLKVGFRKNGDGNDLEHHHHHH”: “not soluble”; for “DDIEADHVGSYGIVVYQSPGDIGQYTFEFDGDELFYVDLDKKETIWMLPEFAQLRSFDPQGGLQNIATGKHNLGVLTKRSNSTPATNEAPQATVFPKSPVLLGQPNTLICFVDNIFPPVINITWLRNSKSVADGVYETSFFVNRDYSFHKLSYLTFIPSDDDIYDCKVEHWGLEEPVLKHWEP”: “soluble”.
